According to patent US20220008520A1, “METHODS AND MATERIALS FOR REDUCING AGE-RELATED STRIATED MUSCLE AND COGNITIVE DECLINE” (University of Pittsburgh - Of the Commonwealth System of …, priority 2018, published 2022):

Experiments:
MPCs [1] = experiment: qPCR-based analysis of mtDNA damage and mtDNA copy number in MPCs; assay type: cell-based, mice; conditions: aged MPCs, recombinant α-Klotho in culture for 48 hours, 0.05μg/mL
Method: mtDNA integrity was next examined in MPCs isolated from young or aged mice, using a qPCR-based assay. The method used is based on the principle that a wide variety of types of DNA damage have the propensity to block DNA polymerase progression (see, e.g., Furda et al., 2012 DNA Repair (Amst), 11:684-92). Therefore, this assay detects numerous kinds of base DNA damage or DNA repair intermediates such as abasic sites, as well as single and double DNA strand breaks.
MPCs were treated with 25 nmol of silencing RNA (siRNA) to α-Klotho (GE Dharmacon, Product no.SO2462181G) for 48 hours. As a control, young MPCs were treated with a non-targeting (scramble) siRNA. […]
(§1) Oxygen consumption rate (OCR) and extracellular acidification rate (ECAR) were measured in real time using a Seahorse XFe96 Extracellular Flux Analyzer (Billerica, Mass.) as described elsewhere (see, e.g., de Moura and Van Houten, 2014 Methods Mol Biol, 1105:589-602). The basal OCR was measured by averaging the OCR values before treating the cells with oligomycin. Total reserve capacity was calculated by the differences of OCR between treatment with FCCP and 2DG and basal values. Mitochondrial DNA damage was quantified as described elsewhere (see, e.g., Sanders et al., 2014 Toxicol Sci, 142:395-402; and Sanders et al., 2014 Neurobiol Dis, 62:381-6). […]

MPCs [2] = experiment: Seahorse XFe96 analysis of MPC bioenergetics (basal OCR, reserve capacity); assay type: cell-based, mice; conditions: aged MPCs, recombinant α-Klotho in culture for 48 hours, 0.05μg/mL
Method: In light of the loss of mitochondrial ultrastructural resulting from decreased α-Klotho expression, we next evaluated whether loss of α-Klotho drives MPC mitochondrial dysfunction. The bioenergetic profiles of young and aged MPCs were studied using a Seahorse XFe96 Flux analyzer, which measures oxygen consumption rate (OCR), a measure of oxidative phosphorylation. OCR was measured again after injection of oligomycin, FCCP, 2-deoxyglucose (2-DG), and rotenone. […] When young MPCs were treated with siRNA to α-Klotho, basal OCR was reduced to ˜25% values of scramble-treated counterparts (FIG. 4C, FIG. 14). MPCs isolated from uninjured Kl+/− mice display a similarly blunted bioenergetic profile (FIG. 4D). […] Reserve capacity represents the spare bioenergetic capacity, is calculated as the difference between the basal and maximal OCR, and indicates the ability of a cell to respond to stress. […]
as §1, with “values.” for “values. Mitochondrial DNA damage was quantified as described elsewhere (see, e.g., Sanders et al., 2014 Toxicol Sci, 142:395-402; and Sanders et al., 2014 Neurobiol Dis, 62:381-6).”

OGG1 and APE1 = experiment: LXRepair multiplex DNA base excision repair enzyme activities in MPCs; assay type: cell-based, mice; conditions: siRNA-treated MPCs from young animals, 48 hours of α-Klotho supplementation
Method: LXRepair multiplex technology (see, e.g., Garreau-Balandier et al., 2014 FEBS Lett, 588:1673-9; and Sauvaigo et al., 2004 Anal Biochem, 333:182-92) was used to evaluate the DNA base excision repair (BER) enzyme activities of OGG1 and APE1, which work on two common oxidative DNA lesions, 8-oxodG and abasic sites, respectively.
MPCs were treated with 25 nmol of silencing RNA (siRNA) to α-Klotho (GE Dharmacon, Product no.SO2462181G) for 48 hours. As a control, young MPCs were treated with a non-targeting (scramble) siRNA. Aged MPCs were treated with 0.05μg/mL exogenous α-Klotho (R & D systems, Product no. aa 34-981), added to the culture media for 48 hours.

aged mice = experiment: Cardiotoxin TA muscle injury in aged mice, α-Klotho supplementation in vivo; conditions: for functional recovery (wire hang test, in situ contractile testing) / myofiber area / number of regenerating fibers: daily i.p. 10 μg/kg
Method: Wild-type male C57BL/6 young, Kl+/− mice, or old mice received injuries to bilateral Tibialis Anterior (TA) muscles via an intramuscular injection of cardiotoxin (10 μL of 1 mg/mL). Fourteen days following the injury, TAs were harvested for histological analysis of α-Klotho, fibrosis (picrosirius red), degenerating myofibers (IgG) and myofiber regeneration (laminin). Second Harmonic Generation (SHG) imaging was performed on isolated TA muscles treated with a non-targeting control or lentiviral knockdown of α-Klotho, as well as pump-administered animals in order to visualize collagen and myofibers within the muscle 14 days post injury, as described elsewhere (see, e.g., Zhang et al., 2016 Stem Cells 34:732-742).
Strength endurance was tested using the hang-wire test as described elsewhere (see, e.g., Aartsma-Rus et al., J. Vis. Exp 85:51303 (2014)). The Hang Impulse (HI) score was calculated as bodyweight (grams)×time hung (seconds). Male mice were used for all testing using C57B1/6 mice. Wild type and Kl+/− were females for testing.
Mini osmotic pumps containing either saline or α-Klotho (324 pg/ml in saline vehicle) were inserted subcutaneously into aged mice. After 2 days, bilateral TA muscles were injured by intramuscular CTX injection (as above). Osmotic pumps remained implanted until euthanasia 14 days post injury. Isotonic saline or α-Klotho (10 μg/kg body weight) was administered to aged animals via daily intraperitoneal injections over days 1-3 post-injury or 3-5 days post-injury. The TAs were then harvested 14 days post injury and preserved for histology or SHG analysis. Blood serum was also collected to evaluate circulating α-Klotho levels via ELISA. The activity of α-Klotho was confirmed as described elsewhere (see, e.g., Shalhoub et al., 2011 Calcif Tissue Int, 89:140-50).

B1: α-Klotho: recombinant/exogenous α-Klotho protein (R & D systems, Product no. aa 34-981) (protein)
chain: AEPGQGAQTWARFARAPAPEAAGLLHDTFPDGFLWAVGSAAYQTEGGWRQHGKGASIWDTFTHHSGAAPSDSPIVVAPSGAPSPPLSSTGDVASDSYNNVYRDTEGLRELGVTHYRFSISWARVLPNGTAGTPNREGLRYYRRLLERLRELGVQPVVTLYHWDLPQRLQDTYGGWANRALADHFRDYAELCFRHFGGQVKYWITIDNPYVVAWHGYATGRLAPGVRGSSRLGYLVAHNLLLAHAKVWHLYNTSFRPTQGGRVSIALSSHWINPRRMTDYNIRECQKSLDFVLGWFAKPIFIDGDYPESMKNNLSSLLPDFTESEKRLIRGTADFFALSFGPTLSFQLLDPNMKFRQLESPNLRQLLSWIDLEYNHPPIFIVENGWFVSGTTKRDDAKYMYYLKKFIMETLKAIRLDGVDVIGYTAWSLMDGFEWHRGYSIRRGLFYVDFLSQDKELLPKSSALFYQKLIEDNGFPPLPENQPLEGTFPCDFAWGVVDNYVQVDTTLSQFTDPNVYLWDVHHSKRLIKVDGVVAKKRKPYCVDFSAIRPQITLLREMRVTHFRFSLDWALILPLGNQTQVNHTVLHFYRCMISELVHANITPVVALWQPAAPHQGLPHALAKHGAWENPHTALAFADYANLCFKELGHWVNLWITMNEPNTRNMTYRAGHHLLRAHALAWHLYDDKFRAAQKGKISIALQADWIEPACPFSQNDKEVAERVLEFDIGWLAEPIFGSGDYPRVMRDWLNQKNNFLLPYFTEDEKKLVRGSFDFLAVSHYTTILVDWEKEDPMKYNDYLEVQEMTDITWLNSPSQVAVVPWGLRKVLNWLRFKYGDLPMYVTANGIDDDPHAEQDSLRIYYIKNYVNEALKAYVLDDINLCGYFAYSLSDRSAPKSGFYRYAANQFEPKPSMKHYRKIIDSNGFLGSGTLGRFCPEEYTVCTECGFFQTRKSLLVFISFLVFTFIISLALIFHYSKKGQRSYK
B1 was tested, and the mtDNA damage (MPCs [1]) was “decreased mtDNA damage”, the OCR (MPCs [2]) was “increased OCR” and the reserve capacity (MPCs [2]) was “increased reserve capacity”. For the same molecule, the “activity of BER enzymes (OGG1, APE1; 8-oxodG and abasic sites)” value (OGG1 and APE1) was “dramatically stimulated the activity of these BER enzymes”, the “activity of BER enzymes (OGG1, APE1; 8-oxodG and abasic sites)” value (OGG1 and APE1; listed as Klotho) was “stimulated repair” and the “functional recovery (wire hang test, in situ contractile testing)” value (aged mice; 1-3 dpi) was “only animals receiving α-Klotho over 3-5 dpi displayed an improved functional recovery”. The myofiber area (aged mice; 1-3 dpi) was “significant increase in myofiber area”, the “number of regenerating fibers” value (aged mice; 1-3 dpi) was “significant increase in the number of regenerating fibers” and the “functional recovery (wire hang test, in situ contractile testing)” value (aged mice; 3-5 dpi) was “improved functional recovery”. For the same molecule, the myofiber area (aged mice; 3-5 dpi) was “significant increase in myofiber area”, the “number of regenerating fibers” value (aged mice; 3-5 dpi) was “significant increase in the number of regenerating fibers” and the “local α-Klotho within the injured muscle areas” value (aged mice; osmotic pump, 324 pg/ml, 14 dpi) was “significant increase in local α-Klotho”. The “increase in the number of MyoD+ cells at the site of injury” value (aged mice; osmotic pump, 14 dpi) was “approximately 3.5 fold”, the “number of regenerating fibers after injury (histology and SHG)” value (aged mice; osmotic pump, 14 dpi) was “increased number of regenerating fibers” and the “myofiber cross sectional area” value (aged mice; osmotic pump, vs saline) was “no significant increase”. The total muscle area (aged mice; osmotic pump, vs saline) was “no significant increase”.
